The values below come from the DeepSol protein solubility set.

The data set is described as follows: soluble on expression in E. coli; label from the status in PepcDB or PDB records.
Consider “MGSDKIHHHHHHEATETQNEKVKVKVETVSVQDVEQLSEFTATVEANIKNNIAPQTPFRIEKIFAEVGDHVKAGQLLAKMDATSLKQAKIQLDNQEIEFKRIDELYKVGGASKSAWDAQKTSLEVARETYKNLVENTQLLSPISGIVTARNYDSGDMYSGGNPIYTVEEIRPVKLMVNVSESLFTKVKKGHEVDIRLDVYGDEVFKGKVNLVYPTIDPATRTFPVEIKIANSDERVRPGMFARVTMSFGHMDHVVAPDRSIVKQSGAGDRYIYVCKDGKVSYQKVKLGRRMGDKYEIISGVEDGDQVVITGQSRLTNGMEVEIENE”, for which the “soluble on expression in E. coli” value is “not soluble”. For “MGSDKIHHHHHHEDSNPNALSPGIFWKSEGDIMKGLTSVYGALQPNASWAIPFERYIVIDGYRSDEITHRDDVTSWMNISSFNVEPTNSVVKTEWTNLYKGINYANQCLTNIPTVPGDSESLNALKKQSIAEARFLRAYFYYRLYVNFGERVPIYKEALAGTDEEFYPPQANPGELVSLIETELKEVQSDLPESYEESEKGRVTRYTAAALLGKFYMFRKELSKAEVEFKKIIDKEGSLFGLMENWADNFDGMHKNNKESLFEIQFTGDRSGGQYEYNLFTVHLGPMAGLDAYEEAYPTDWMCQTLLADKTIDGKSSDRALHTLIFDDPECRPFYYKNGKSFKDYHKEGEIFWHKYVTYTEGMSDYWDYSFFNVSVIRYADVLLLYAECLNDKGETTEAINIINKVRARVNVPALPLTMSKAEVLKHLQDKERPCELALEGSRWYDLVRWGIVEETLKAHNKPFVENYVDTKHQLFPIPHSEFLLNPDWEQNPNYSK” the value was “not soluble”; for “MGSDKIHHHHHHEKKDKKENDTSAAQATETDCTAAELVTTEPEAEITISEMIDQRIKEEGKIMMYRMHFGPSKTPLEITEDLNVNIISYDGKELIDYGNSSNRRGETRLGDIIHNKVDYSTYDIGAYGGSWKRHRRVSGGDEKYVEEEGYVQREITTDDSGNNTQMETLYLYSKGTLYTREEGSEVWNQTEKNDNLPVVAFGTFERIKLDGKTYMTFCVRDDLNLIKYIIIPDNKFTENKTVVYDTPGTEGTTVNTVDYLKEYQAVPKEELEQMIVFPGSKKAESSQAAD”, “not soluble”. Take “MGSDKIHHHHHHELPDNRTELNENNVGKILLSAYPTTAICEMGEMSSDNTDAYPNRFSSFNRLQEDLYKWADSAEQDQDSPHALWESCYMAISACNEVLKVIEDAGNPASLSAEKGEALVCRAYAHFLLANIFCNAYSSQASSDLGIPYMKTIETTVSPDYQRGTLEEVYQNIEKDLLEGLDLVTDIYAVPKYHFTKKAAQAFAARFYLYYVKSDKSNYTKVIDYATKVLGSNPATSVRDWKSLGALDINGSVQPNAYVDATNGANLLLVSAGSYWGYVHAPYGLGERYAHGPKVGNETCNSVGPWGSDYYMGVWSNSSALPTKIVVMKITQYKEVVDAVAGTINGHMINAAFTTDETLLCRAEAYAMKEMYPQAIADLNIWREAYTRSTTPLTTESINDFYGSMEYYTPTESTVKKKLNPDFTITNETQENVIHCILHARRLTTLHEGLRWQDIKRYGITIYRRLMNDNGTITVTDKLEPNDPRRAIQIPSDVISAGLKPNPRTK”: the “soluble on expression in E. coli” value was “not soluble”. Turning to “MGSDKIHHHHHHENKLVSGAVGLGFGTGPTFPGADENDSGLFPVVDLKIGQYVVVNQRGLGLEHSRSLGHGELSYGLGVGYDFTSRSVEDDLRLAGLSDVDAGAMATLFLEYQTGPFSYGLEVMRGLNSDGHEGTRAKLSGGYDIQLSERAGLSVSPYLIWADDNWMDSFFSVSNAQSVASGLAAYDANAGMSQAGLNLTASYALREQVIVFASVDYATLLGDAADSSVSFDDNAASLSAGVMFRF”, the “soluble on expression in E. coli” value was “not soluble”. With “MGSDKIHHHHHHENLYFQGMKIKVALLDKDKEYLDRLTGVFNTKYADKLEVYSFTDEKNAIESVKEYRIDVLIAEEDFNIDKSEFKRNCGLAYFTGTPGIELIKDEIAICKYQRVDVIFKQILGVYSDMAANVATISGENDKSSVVIFTSPCGGVGTSTVAAACAIAHANMGKKVFYLNIEQCGTTDVFFQAEGNATMSDVIYSLKSRKANLLLKLESCIKQSQEGVSYFSSTKVALDILEISYADIDTLIGNIQGMDNYDEIIVDLPFSLEIEKLKLLSKAWRIIVVNDGSQLSNYKFMRAYESVVLLEQNDDINIIRNMNMIYNKFSNKNSEMLSNISIKTIGGAPRYEHATVRQIIEALTKMEFFEEILQ” the entry was “soluble”.
